In patent US7205275 (dated 2007):
Like-named read-outs stand apart in the source and are kept apart here. Primed or numbered codes have the meaning given here. Where no end group is shown, it is not given here. [ ]: non-standard residue; d: D form. Fc(3) = Fc: non-antigen-binding fragment of an antibody from proteolytic digestion of a whole antibody (vehicle); Fc(4) = non-antigen-binding fragment of an antibody (from proteolytic digestion of a whole antibody); mPEG 5K = methoxy-PEG 5 kDa coupled via the N-terminal cysteine; Fc = immunoglobulin Fc domain fused to the peptide (peptibody); Fc″ = Fc domain of the peptibody fusion

T1: human Ang-2 (human, UniProt O15123)
T1 chain: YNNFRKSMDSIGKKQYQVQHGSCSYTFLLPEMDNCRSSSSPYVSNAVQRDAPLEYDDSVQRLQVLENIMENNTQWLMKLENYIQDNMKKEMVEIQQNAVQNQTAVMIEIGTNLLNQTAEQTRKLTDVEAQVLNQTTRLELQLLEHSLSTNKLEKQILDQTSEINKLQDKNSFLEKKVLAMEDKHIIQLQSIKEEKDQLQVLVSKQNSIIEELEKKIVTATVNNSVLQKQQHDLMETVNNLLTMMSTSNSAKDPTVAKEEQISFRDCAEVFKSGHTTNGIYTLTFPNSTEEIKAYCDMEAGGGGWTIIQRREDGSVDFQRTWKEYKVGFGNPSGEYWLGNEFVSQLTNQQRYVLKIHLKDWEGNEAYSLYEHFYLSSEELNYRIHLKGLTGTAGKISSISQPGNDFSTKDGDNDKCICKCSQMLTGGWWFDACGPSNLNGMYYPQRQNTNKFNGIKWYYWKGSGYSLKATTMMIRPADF

T2: rat Ang-2 (rAng-2) (rat, UniProt O35462)
T2 chain: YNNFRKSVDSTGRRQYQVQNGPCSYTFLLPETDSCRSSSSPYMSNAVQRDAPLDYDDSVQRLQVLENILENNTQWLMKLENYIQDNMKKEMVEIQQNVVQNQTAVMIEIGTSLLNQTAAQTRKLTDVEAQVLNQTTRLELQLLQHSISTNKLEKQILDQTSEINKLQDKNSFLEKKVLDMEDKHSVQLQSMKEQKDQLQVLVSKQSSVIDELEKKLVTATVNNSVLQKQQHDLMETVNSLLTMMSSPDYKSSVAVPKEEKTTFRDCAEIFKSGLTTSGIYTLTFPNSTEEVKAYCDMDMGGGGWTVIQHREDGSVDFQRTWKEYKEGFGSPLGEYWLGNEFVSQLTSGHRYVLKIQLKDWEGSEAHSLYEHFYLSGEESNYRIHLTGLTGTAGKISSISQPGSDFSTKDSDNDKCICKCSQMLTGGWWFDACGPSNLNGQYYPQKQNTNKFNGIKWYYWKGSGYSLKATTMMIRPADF

T3: human Ang-1 (human, UniProt Q15389)
T3 chain: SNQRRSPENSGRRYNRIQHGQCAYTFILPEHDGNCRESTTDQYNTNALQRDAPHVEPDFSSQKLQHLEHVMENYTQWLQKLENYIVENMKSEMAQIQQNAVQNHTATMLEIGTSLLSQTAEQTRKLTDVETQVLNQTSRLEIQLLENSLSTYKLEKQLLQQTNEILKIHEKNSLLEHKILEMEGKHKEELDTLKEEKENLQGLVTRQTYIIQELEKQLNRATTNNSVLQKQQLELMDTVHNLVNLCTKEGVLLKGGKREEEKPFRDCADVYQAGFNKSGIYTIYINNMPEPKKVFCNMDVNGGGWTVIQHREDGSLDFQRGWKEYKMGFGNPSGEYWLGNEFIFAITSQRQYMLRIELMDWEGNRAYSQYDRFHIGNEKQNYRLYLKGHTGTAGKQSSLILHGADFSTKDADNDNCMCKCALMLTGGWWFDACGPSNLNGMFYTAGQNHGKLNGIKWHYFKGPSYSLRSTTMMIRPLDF

T4: mouse Ang-1 (mouse, UniProt O08538)
T4 chain: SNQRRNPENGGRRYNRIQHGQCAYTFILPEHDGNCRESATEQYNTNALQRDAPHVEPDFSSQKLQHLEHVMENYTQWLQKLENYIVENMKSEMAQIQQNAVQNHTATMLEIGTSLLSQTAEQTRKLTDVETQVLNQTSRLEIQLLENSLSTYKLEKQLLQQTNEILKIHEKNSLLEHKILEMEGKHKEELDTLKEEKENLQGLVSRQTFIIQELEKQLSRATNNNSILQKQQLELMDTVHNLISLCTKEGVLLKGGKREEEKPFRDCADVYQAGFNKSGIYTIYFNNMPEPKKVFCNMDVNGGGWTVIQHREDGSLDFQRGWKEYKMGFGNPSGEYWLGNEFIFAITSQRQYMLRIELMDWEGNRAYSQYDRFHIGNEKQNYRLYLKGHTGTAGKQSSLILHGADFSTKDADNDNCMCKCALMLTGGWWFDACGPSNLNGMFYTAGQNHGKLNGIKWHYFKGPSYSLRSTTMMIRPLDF

T5: cAng-2 (UniProt O15123)
T5 chain: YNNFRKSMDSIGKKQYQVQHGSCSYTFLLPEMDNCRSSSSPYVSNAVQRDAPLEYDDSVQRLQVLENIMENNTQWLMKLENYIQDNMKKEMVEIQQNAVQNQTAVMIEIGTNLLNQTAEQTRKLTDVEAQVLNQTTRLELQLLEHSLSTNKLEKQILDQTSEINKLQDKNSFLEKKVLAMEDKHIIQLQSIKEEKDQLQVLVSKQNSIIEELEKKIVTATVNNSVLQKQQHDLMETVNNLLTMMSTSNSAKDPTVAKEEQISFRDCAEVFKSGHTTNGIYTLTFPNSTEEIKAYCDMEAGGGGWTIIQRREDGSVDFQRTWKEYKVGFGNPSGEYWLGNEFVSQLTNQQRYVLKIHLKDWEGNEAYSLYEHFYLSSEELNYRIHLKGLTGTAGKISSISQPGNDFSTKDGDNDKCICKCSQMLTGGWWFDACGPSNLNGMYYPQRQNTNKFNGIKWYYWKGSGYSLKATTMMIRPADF

B1: mouse Ang-2 (protein)
chain: YSNFRKSVDSTGRRQYQVQNGPCSYTFLLPETDSCRSSSSPYMSNAVQRDAPLDYDDSVQRLQVLENILENNTQWLMKLENYIQDNMKKEMVEIQQNVVQNQTAVMIEIGTSLLNQTAAQTRKLTDVEAQVLNQTTRLELQLLQHSISTNKLEKQILDQTSEINKLQNKNSFLEQKVLDMEGKHSEQLQSMKEQKDELQVLVSKQSSVIDELEKKLVTATVNNSLLQKQQHDLMETVNSLLTMMSSPNSKSSVAIRKEEQTTFRDCAEIFKSGLTTSGIYTLTFPNSTEEIKAYCDMDVGGGGWTVIQHREDGSVDFQRTWKEYKEGFGSPLGEYWLGNEFVSQLTGQHRYVLKIQLKDWEGNEAHSLYDHFYLAGEESNYRIHLTGLTGTAGKISSISQPGSDFSTKDSDNDKCICKCSQMLSGGWWFDACGPSNLNGQYYPQKQNTNKFNGIKWYYWKGSGYSLKATTMMIRPADF

How the values were obtained:
[1] = target: T1, human Ang-2; experiment: competition ELISA vs Tie-2
[2] = target: T2, rat Ang-2 (rAng-2); experiment: competition ELISA vs Tie-2
[3] = target: T1, human Ang-2; experiment: competition ELISA vs Tie-2
[4] = target: T3, human Ang-1; experiment: competition ELISA vs Tie-2
[5] = target: T1, human Ang-2; experiment: competition ELISA vs Tie-2
[6] = target: B1; experiment: competition ELISA vs Tie-2
[7] = target: T1, human Ang-2; experiment: SPR
[8] = target: T1, human Ang-2; experiment: competition ELISA vs Tie-2
[9] = target: B1; experiment: competition ELISA vs Tie-2
[10] = target: B1; experiment: SPR
[11] = target: T1, human Ang-2; experiment: SPR
[12] = target: T3, human Ang-1; experiment: competition ELISA vs Tie-2
[13] = target: T4, mouse Ang-1; experiment: competition ELISA vs Tie-2
[14] = target: T5, cAng-2; experiment: competition ELISA vs Tie-2
[15] = target: T1, human Ang-2; experiment: competition ELISA vs Tie-2
[16] = target: Negative Control Peptibody 4883; experiment: ELISA

IC50 [2] [nM] | IC50 [3] [nM] | IC50 [4] [nM] | IC50 [6] [nM] | Kd [7] [nM] | Binder | other results
 |  |  |  |  | C(mPEG 5K)GGGGGAQTNFMPMDDLEQRLYEQFILQQGLE [mPEG5K-(L1-7 Peptide)] | IC50 [1]: 11.7 nM
0.35 | 0.2 | > 1000 | 0.27 |  | M[Fc]GGGGGAQTNIQEECEWDPWTCDHMPGKLE (not fully specified; cysteine pairing not given here) [Con4-40 (C)] | IC50 [5]: 0.1 nM
0.22 | 0.08 | 43 | 0.16 | 0.21 | M[Fc(4)]GGGGGAQPIRQEECDWDPWTCEHMWEVLE (not fully specified; cysteine pairing not given here) [Con4-44 (C)] | IC50 [5]: 0.09 nM
 |  |  |  |  | MGAQKFNPLDELEETLYEQFTFQQLEGGGGG[Fc(3)] [L1 (N)] | IC50 [8]: 6 nM; IC50 [9]: 11 nM; Kd [10]: 0.42 nM; Kd [11]: 3.1 nM; IC50 [12]: > 1000 nM
 |  |  |  |  | MGAQFDYCEGVEDPFTFGCDNHLEGGGGGX (not fully specified (C-terminus, bridges); printed as MGAQ-FDYCEGVEDPFTFGCDNHLE-GGGGG-Fc; cysteine pairing not given here) [TN12-9 (N)] | IC50 [8]: 21 nM; IC50 [9]: 7.7 nM; Kd [10]: 0.32 nM; Kd [11]: 8.2 nM; IC50 [12]: > 1000 nM
 |  |  |  |  | CGGGGGAQTNFMPMDDLEQRLYEQFILQQGLE (not fully specified (residue 1); printed as C-GGGGG-AQ-TNFMPMDDLEQRLYEQFILQQG-LE; also: dimer linked by PEG 3.4K via N-terminal Cys) [PEG3.4K(L1-7 Peptide)2] | IC50 [1]: 0.058 nM
0.236 | 0.197 | 200 | 0.289 | 0.38 | M[Fc]GGGGGAQQEECEWDPWTCEHMLE (not fully specified (bridges); printed as M-Fc-GGGGGAQQEECEWDPWTCEHMLE; cysteine pairing not given here; also: Fc fusion domain at position 2) [Con4 (C)] | IC50 [13]: 300 nM; IC50 [8]: 0.2 nM; IC50 [9]: 0.3 nM; IC50 [14]: 0.54 nM
0.06 | 0.06 | > 1000 | 0.06 | 0.77 | MGAQQKFQPLDELEQTLYEQFMLQQALEGGGGG[Fc(3)] [L1-10 (N)] | IC50 [15]: 0.05 nM
0.035 | 0.046 | > 1000 | 0.063 | 0.24 | MGAQTNFMPMDDLEQRLYEQFILQQGLEGGGGG-Fc [L1-7 (N)] | IC50 [13]: > 1000 nM; IC50 [14]: 0.108 nM; IC50 [15]: 0.03 nM
 |  |  |  |  | B1 | binding result [16]: no binding
0.204 | 0.179 | > 1000 | 0.249 | 0.24 | MGAQHTFQPLDELEETLYYQWLYDQLLEGGGGG-{Fc″} [L1-21 (N)] | IC50 [13]: > 1000 nM; IC50 [14]: 0.608 nM; IC50 [15]: 0.17 nM
